{"source": "paper PMC3030345", "about": "(The Journal of Biological Chemistry, 2010)", "target": "the molecule itself", "test": "atomic force microscopy"}
{"protein": "A3G-H248A/H250A-Myc-His (enzyme, human, UniProt Q9HC16 1-384, looked up) MKPHFRNTVERMYRDTFSYNFYNRPILSRRNTVWLCYEVKTKGPSRPPLDAKIFRGQVYSELKYHPEMRFFHWFSKWRKLHRDQEYEVTWYISWSPCTKCTRDMATFLAEDPKVTLTIFVARLYYFWDPDYQEALRSLCQKRDGPRATMKIMNYDEFQHCWSKFVYSQRELFEPWNNLPKYYILLHIMLGEILRHSMDPPTFTFNFNNEPWVRGRHETYLCYEVERMHNDTWVLLNQRRGFLCNQAPAKAGFLEGRHAELCFLDVIPFWKLDLDQDYRVTCFTSWSPCFSCAQEMAKFISKNKHVSLCIFTARIYDDQGRCQEGLRTLAEAGAKISIMTYSEFKHCWDTFVDHQGCPFQPWDGLDEHSQDLSGRLRAILQNQEN", "values": [{"measurement": "stoichiometry N", "result": 2}]}
